Assay results as given in the RNAGym collection of RNA variant scans (doi:10.1073/pnas.2313332121).

B1: TPR t1 (parent)
chain: GACCAAUCUGCCCUCAGAGCUCGAGAACAUCUUCGGAUGCAGAGGAGGCAGGCUUCGGUGGCGCGAUAGCGCCAACGUCCUCAACCUCCAAUGCAUCCCACCACAUGAUGAUGCCUGAAGAGCCUUGGUUUUUUG

Variants of: B1
Assay: polymerase ribozyme fitness, log enrichment relative to wild type (log ratio); higher = more active; in vitro selection for triplet polymerase activity
Method in brief: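 After PCR construction and transcription, each subunit's mutant library from a heterodimeric triplet polymerase ribozyme was annealed with a biotinylated primer, the partner subunit and triplets. Incubation was frozen, at −7 °C, and extended constructs were gel-excised, bound to streptavidin beads and amplified by RT-PCR, in one selection round done in triplicate. Fitness is the logarithm of a genotype's enrichment divided by that of the wild type, from inverse-variance-weighted replicate averages of Illumina-sequenced inputs and outputs. The base of the logarithm is 2, and genotypes needed ≥10 input reads and ≥1 read per output.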

First: A24G U59C U87A
Second: G10U A26U G42A U106A U125G
The “polymerase ribozyme fitness (log ratio)” value of the first is higher: -2.51 for the first, -4.36 for the second.

Compared with A37U G48C A121C, U9G C70U C98U is lower in “polymerase ribozyme fitness (log ratio)” value: 0.912 for the first, -1.09 for the second.

Compared with A18U G44A A46U G48C G61U C72U C98U, C12U G110A is higher in “polymerase ribozyme fitness (log ratio)” value: -5.97 for the first, 0.122 for the second.

Going from A26G U33G G61A A84C C98U to C11G U21A C53G C114A, the “polymerase ribozyme fitness (log ratio)” value rises from -5.59 to 0.189.

Going from C12U C20U A43U C62U U96C U106A U129A to G93C C114U, the “polymerase ribozyme fitness (log ratio)” value rises from -6.14 to -1.65.

Compared with C11U U106A, G45A C72U is lower in “polymerase ribozyme fitness (log ratio)” value: -0.58 for the first, -0.796 for the second.

Going from G10U A121U to G60U A103C U106G U125A, the “polymerase ribozyme fitness (log ratio)” value falls from 1.92 to -5.2.

Compared with A46U C73G G77A G127C, G69C C88G is higher in “polymerase ribozyme fitness (log ratio)” value: -3.61 for the first, -2.63 for the second.

Compared with A37C G39C G63A, C12U A27C A95U U125A is higher in “polymerase ribozyme fitness (log ratio)” value: -4.27 for the first, -3.79 for the second.

First: A5U G113U C124A
Second: G61C U112G
The “polymerase ribozyme fitness (log ratio)” value of the first is lower: -3.25 for the first, -2.38 for the second.

Going from C12A G52U G57U C64U C72U A105U to C56A C88U, the “polymerase ribozyme fitness (log ratio)” value rises from -3.63 to -0.627.

C12G G71A and G17A C72U A90U A121G are within 0.2 log units of each other in “polymerase ribozyme fitness (log ratio)” value: 0.0302 for the first, 0.0637 for the second.

Going from C73A G117C to A43C C70G A111U, the “polymerase ribozyme fitness (log ratio)” value falls from -2.37 to -5.68.

Compared with U9A G42C C62A C101U, U7C U14A C22U G47U C56G G60A G120U is lower in “polymerase ribozyme fitness (log ratio)” value: -3.42 for the first, -7.5 for the second.

First: U78C U129A
Second: G10C G45A C104A
The “polymerase ribozyme fitness (log ratio)” value of the first is higher: -1.01 for the first, -2.44 for the second.

First: C56G U87A
Second: G60A C82A C85A G120A
The “polymerase ribozyme fitness (log ratio)” value of the first is lower: -1.33 for the first, -0.412 for the second.

First: C3A A5U G60C A91U G127A
Second: G35U C79U C114U U131C U134G
The “polymerase ribozyme fitness (log ratio)” value of the first is higher: -2.45 for the first, -5.19 for the second.

Going from C82A G120C to A29G C94A, the “polymerase ribozyme fitness (log ratio)” value falls from -0.101 to -2.09.

Going from C12A U14G C72U U81C G93C A119U G120C to C8G G48A U96G U129A, the “polymerase ribozyme fitness (log ratio)” value falls from -0.415 to -0.823.

Compared with C22U C115G, U92C G128C U130A is higher in “polymerase ribozyme fitness (log ratio)” value: -4.6 for the first, -3.52 for the second.

Going from C72G A90U C101A G122A to A2U C8A A100U, the “polymerase ribozyme fitness (log ratio)” value rises from -3.94 to -1.86.

Compared with U78G C79A A118G U130G, G71U U78G is higher in “polymerase ribozyme fitness (log ratio)” value: -2.19 for the first, -0.594 for the second.

First: C8A A83G C104U U129A
Second: C72U C124A
The “polymerase ribozyme fitness (log ratio)” value of the first is lower: -2.16 for the first, 1.54 for the second.

Going from C8A C15A A29U G42U C72G C114U to A2G C85U A95G, the “polymerase ribozyme fitness (log ratio)” value rises from -4.6 to -2.08.

Compared with C56G A111U, C73A C89U G110C is lower in “polymerase ribozyme fitness (log ratio)” value: -2.49 for the first, -5.15 for the second.

First: C4G C13G C49A G60A C62U
Second: C4A C40U C53U G57U A83C G113U
The “polymerase ribozyme fitness (log ratio)” value of the first is higher: -4.62 for the first, -5.8 for the second.

Compared with U33C G42C C99G A105G G113C U116A C123G C124A U132C, C3U G17C C22A A29G G45A G69U C89U is higher in “polymerase ribozyme fitness (log ratio)” value: -7.71 for the first, -3.84 for the second.

Going from C70G A103G to C15U G23C A27U G45C G113C, the “polymerase ribozyme fitness (log ratio)” value falls from -4.93 to -6.21.

Going from A37U A66U to C8G G17U A26U C72G, the “polymerase ribozyme fitness (log ratio)” value falls from -1.5 to -4.46.

Compared with U9A G44U C123A, U14C C97U is lower in “polymerase ribozyme fitness (log ratio)” value: 0.274 for the first, -3.31 for the second.

First: C4G A5U C73G C89U C101G G120A G135A
Second: A75U C97U
The “polymerase ribozyme fitness (log ratio)” value of the first is lower: -3.57 for the first, -0.863 for the second.

First: C3U C13U C104A
Second: U9A G17U A74C C82A U87C
The “polymerase ribozyme fitness (log ratio)” value of the first is lower: -1.31 for the first, -0.851 for the second.

Going from C64G C82G C89U A100G A111C U116A U129G to G39U A46G, the “polymerase ribozyme fitness (log ratio)” value rises from -5.44 to -1.02.

Going from C72A A100U U106C to U59C G93U, the “polymerase ribozyme fitness (log ratio)” value falls from -0.411 to -1.12.

Compared with C73G G93A, G117A U129A is lower in “polymerase ribozyme fitness (log ratio)” value: -1.13 for the first, -3.39 for the second.

Compared with U96G A111G U125G, C11G A18U is higher in “polymerase ribozyme fitness (log ratio)” value: -1.74 for the first, -1.34 for the second.

First: C8G U54G C89G
Second: U59C C72G A118C
The “polymerase ribozyme fitness (log ratio)” value of the first is higher: -1.05 for the first, -3.55 for the second.

Compared with C11G A37C A46C G63U C123U, G19U C72A is lower in “polymerase ribozyme fitness (log ratio)” value: -1.9 for the first, -3.06 for the second.

First: C11G C22U G61C A83G
Second: C97U C123A
The “polymerase ribozyme fitness (log ratio)” value of the first is lower: -6.84 for the first, 0.00246 for the second.

Going from A18U G61C to G61C U87A G110C, the “polymerase ribozyme fitness (log ratio)” value falls from -5.22 to -5.84.

C56G C101U U130C and G71A C124G are within 0.2 log units of each other in “polymerase ribozyme fitness (log ratio)” value: 0.475 for the first, 0.316 for the second.

With C15U A37G C70U A100U A121C C123U the “polymerase ribozyme fitness (log ratio)” value was -1.4.
